Assay results taken from the RNAGym collection of RNA variant scans (doi:10.1073/pnas.2313332121).

B1: TPR t1 (parent)
chain: GACCAAUCUGCCCUCAGAGCUCGAGAACAUCUUCGGAUGCAGAGGAGGCAGGCUUCGGUGGCGCGAUAGCGCCAACGUCCUCAACCUCCAAUGCAUCCCACCACAUGAUGAUGCCUGAAGAGCCUUGGUUUUUUG

Variants of: B1
Assay: polymerase ribozyme fitness, log enrichment relative to wild type (log ratio); higher = more active; in vitro selection for triplet polymerase activity
In short: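 Only genotypes with ≥10 input reads and ≥1 read per output were kept after Illumina sequencing of input and output libraries. These libraries were PCR-built, transcribed mutants of each subunit of a heterodimeric triplet polymerase ribozyme, each put through one triplicate in vitro selection round with frozen incubation at −7 °C, gel excision of extended constructs, streptavidin-bead capture and RT-PCR. Fitness is a logarithmic ratio of genotype enrichment to wild-type enrichment, from inverse-variance-weighted replicate averages, with the logarithm in base 2.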
In the case of G61U C97A C124A, the “polymerase ribozyme fitness (log ratio)” value is reported as -2.39.
In the case of C62A U78G U87C, the “polymerase ribozyme fitness (log ratio)” value is reported as -1.47.
In the case of C64U A66U C72U C97A C123G, the “polymerase ribozyme fitness (log ratio)” value is reported as -4.97.
With G63U C70A the “polymerase ribozyme fitness (log ratio)” value was -0.179.
With G63U C70U the “polymerase ribozyme fitness (log ratio)” value was -0.91.
For A66U C76U C89G C124U G128U U132C, the “polymerase ribozyme fitness (log ratio)” value was -5.09.
With G65A G117A the “polymerase ribozyme fitness (log ratio)” value was -4.47.
For C62A U132C, the “polymerase ribozyme fitness (log ratio)” value was -0.866.
For C62A U132A, the “polymerase ribozyme fitness (log ratio)” value was -0.682.
With G63U U106C the “polymerase ribozyme fitness (log ratio)” value was -1.92.
With G63A A84U C115A U125G the “polymerase ribozyme fitness (log ratio)” value was -0.899.
In the case of G61U U109G, the “polymerase ribozyme fitness (log ratio)” value is reported as -4.68.
For C62A U125G, the “polymerase ribozyme fitness (log ratio)” value was -1.43.
In the case of G61U G63A, the “polymerase ribozyme fitness (log ratio)” value is reported as -4.12.
For G63U U87A C114A, the “polymerase ribozyme fitness (log ratio)” value was -3.29.
For C62U A68G C99U U133G, the “polymerase ribozyme fitness (log ratio)” value was -6.26.
With C62U C114G A121C G135A the “polymerase ribozyme fitness (log ratio)” value was -1.63.
For G63U C104A, the “polymerase ribozyme fitness (log ratio)” value was -2.5.
For G63C U126A G128U U133A, the “polymerase ribozyme fitness (log ratio)” value was -3.25.
With G63A C114A the “polymerase ribozyme fitness (log ratio)” value was -1.9.
With G65A C114G the “polymerase ribozyme fitness (log ratio)” value was -7.73.
With C62A A74C the “polymerase ribozyme fitness (log ratio)” value was -2.68.
With G61U G117C the “polymerase ribozyme fitness (log ratio)” value was -2.09.
With G61U G117U the “polymerase ribozyme fitness (log ratio)” value was -1.34.
For G61U U78G U112G, the “polymerase ribozyme fitness (log ratio)” value was 0.877.
With G63U C89A the “polymerase ribozyme fitness (log ratio)” value was -2.53.
For G61U U81G C86U G120U U133A, the “polymerase ribozyme fitness (log ratio)” value was -4.06.
For G63C C80U G110A, the “polymerase ribozyme fitness (log ratio)” value was -2.48.
With C64U A74C A90C C101G the “polymerase ribozyme fitness (log ratio)” value was -4.26.
In the case of A66G C97U U112G, the “polymerase ribozyme fitness (log ratio)” value is reported as -2.06.
With G63A C101A the “polymerase ribozyme fitness (log ratio)” value was -3.39.
In the case of G63U C94A A121C, the “polymerase ribozyme fitness (log ratio)” value is reported as -0.515.
For G61U U87G U106A, the “polymerase ribozyme fitness (log ratio)” value was -0.129.
For C62A C97U, the “polymerase ribozyme fitness (log ratio)” value was -1.52.
With C62U G117A U131A the “polymerase ribozyme fitness (log ratio)” value was -1.44.
With G63C G122A the “polymerase ribozyme fitness (log ratio)” value was -0.479.
With C64U U130A the “polymerase ribozyme fitness (log ratio)” value was -0.073.
In the case of C64U U106G G120C, the “polymerase ribozyme fitness (log ratio)” value is reported as -0.96.
For A66C U112C A119C, the “polymerase ribozyme fitness (log ratio)” value was -1.53.
In the case of C62U U78C, the “polymerase ribozyme fitness (log ratio)” value is reported as -0.402.
For G61U C104U U116A, the “polymerase ribozyme fitness (log ratio)” value was -2.46.
With G63U G117U the “polymerase ribozyme fitness (log ratio)” value was -2.02.
With C62U U78A U96C the “polymerase ribozyme fitness (log ratio)” value was -0.0957.
With G63U U81C C86A U129C the “polymerase ribozyme fitness (log ratio)” value was -5.92.
In the case of G63U U134G, the “polymerase ribozyme fitness (log ratio)” value is reported as -1.64.
For C62A G113U C114G, the “polymerase ribozyme fitness (log ratio)” value was -4.19.
For G61U U78G C79U G122U, the “polymerase ribozyme fitness (log ratio)” value was 0.33.
With C64A U92A C98U G110C C114A U133A the “polymerase ribozyme fitness (log ratio)” value was -6.59.
In the case of C64A G113A, the “polymerase ribozyme fitness (log ratio)” value is reported as -6.92.
With G61U G113U the “polymerase ribozyme fitness (log ratio)” value was -1.12.
For C64G A121C, the “polymerase ribozyme fitness (log ratio)” value was -5.13.
With G63A C85A the “polymerase ribozyme fitness (log ratio)” value was -2.01.
In the case of G63C A108U A121U G122A, the “polymerase ribozyme fitness (log ratio)” value is reported as -7.45.
In the case of C62A C72U A75C C85A U129C, the “polymerase ribozyme fitness (log ratio)” value is reported as -2.55.
With C64U C86A the “polymerase ribozyme fitness (log ratio)” value was -1.42.
For G61U G93A, the “polymerase ribozyme fitness (log ratio)” value was 0.0678.
With C64U G120U the “polymerase ribozyme fitness (log ratio)” value was 0.23.
In the case of C64U G120A, the “polymerase ribozyme fitness (log ratio)” value is reported as 0.482.
With G61U U131C the “polymerase ribozyme fitness (log ratio)” value was 0.233.
In the case of G63C G120C U131A, the “polymerase ribozyme fitness (log ratio)” value is reported as 0.5.
For G63A A66G, the “polymerase ribozyme fitness (log ratio)” value was -1.9.
In the case of G63A A66C, the “polymerase ribozyme fitness (log ratio)” value is reported as -2.96.
For C64G U106A, the “polymerase ribozyme fitness (log ratio)” value was -5.51.
For A66G A100U G128A, the “polymerase ribozyme fitness (log ratio)” value was -5.33.
For C62A G120U, the “polymerase ribozyme fitness (log ratio)” value was 0.191.
With C62A G120A the “polymerase ribozyme fitness (log ratio)” value was -0.339.
For G63U, the “polymerase ribozyme fitness (log ratio)” value was -1.18.
For G63A, the “polymerase ribozyme fitness (log ratio)” value was -0.907.
For G63C, the “polymerase ribozyme fitness (log ratio)” value was -0.722.
With C62U C98G the “polymerase ribozyme fitness (log ratio)” value was -5.88.
In the case of G63U C101A, the “polymerase ribozyme fitness (log ratio)” value is reported as -2.28.
In the case of G63A G117U, the “polymerase ribozyme fitness (log ratio)” value is reported as -3.18.
With A66C U130C the “polymerase ribozyme fitness (log ratio)” value was -0.918.
For A66C G117A A119U, the “polymerase ribozyme fitness (log ratio)” value was -2.36.
For C62U G113A, the “polymerase ribozyme fitness (log ratio)” value was -0.93.
For C64A C86U C98U, the “polymerase ribozyme fitness (log ratio)” value was -7.04.
With G63C G107A the “polymerase ribozyme fitness (log ratio)” value was -4.87.
With G63U A91C U92G the “polymerase ribozyme fitness (log ratio)” value was -4.45.
In the case of G63A G127U, the “polymerase ribozyme fitness (log ratio)” value is reported as -1.36.
For G63C A84U G117A, the “polymerase ribozyme fitness (log ratio)” value was -2.46.
With C62U G93U U112G U129A the “polymerase ribozyme fitness (log ratio)” value was -3.65.
For C62U U131G, the “polymerase ribozyme fitness (log ratio)” value was -0.5.
With C64U G120U C123G the “polymerase ribozyme fitness (log ratio)” value was 1.13.
